Data on 2 molecules can be found in publication PMC4051775, “Intestinal Cell Barrier Function In Vitro Is Severely Compromised by Keratin 8 and 18 Mutations Identified in Patients with Inflammatory Bowel Disease” (PLoS ONE, 2014).

Common to all, as to details: both partners purified
Experiment [1] addresses T1, keratin 8 wild type recombinant protein (human, UniProt P05787 1-483).
T1 construct: keratin 8 (K8), wild type, recombinant protein; also called K8 WT; K8
T1 sequence (looked up): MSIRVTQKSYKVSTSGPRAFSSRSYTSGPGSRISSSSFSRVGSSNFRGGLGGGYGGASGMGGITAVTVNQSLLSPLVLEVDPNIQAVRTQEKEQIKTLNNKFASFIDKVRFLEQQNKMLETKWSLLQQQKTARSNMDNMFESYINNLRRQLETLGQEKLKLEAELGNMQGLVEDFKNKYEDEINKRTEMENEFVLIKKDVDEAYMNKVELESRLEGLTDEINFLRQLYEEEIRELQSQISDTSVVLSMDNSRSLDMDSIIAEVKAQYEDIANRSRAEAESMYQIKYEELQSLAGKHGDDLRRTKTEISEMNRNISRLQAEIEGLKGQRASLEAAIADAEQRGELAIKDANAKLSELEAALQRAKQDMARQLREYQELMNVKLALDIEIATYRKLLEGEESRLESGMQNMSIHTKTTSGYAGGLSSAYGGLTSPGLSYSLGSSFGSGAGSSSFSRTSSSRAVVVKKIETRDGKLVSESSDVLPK
Description: SPR; published SPR data of Owens et al. (ref. 26) re-analysed here with ENZO: Enzyme Kinetics to calculate Kd; monomeric K18 wild type or S230T in solution, wild type K8 immobilised.

In experiment [2] the target is T2, keratin 8 K464N recombinant protein (human, UniProt P05787 1-483, K464N).
T2 construct: keratin 8 (K8) with the IBD patient mutation K464N, recombinant protein; The mutation was found in IBD patients; also called K8 K464N
T2 sequence (looked up): T1 sequence (looked up) with K464N
The experiment in a line: SPR; published SPR data of Owens et al. (ref. 26) re-analysed here with ENZO: Enzyme Kinetics to calculate Kd; K8 wild type or mutant in solution, wild type K18 partner immobilised.

In experiment [3] the target is T1, keratin 8 wild type recombinant protein. Described as above.
For experiment [4], the target named is T3, keratin 8 G62C recombinant protein (human, UniProt P05787 1-483, G62C).
T3 construct: keratin 8 (K8) with the IBD patient mutation G62C, recombinant protein; The mutation was found in IBD patients; also called K8 G62C
T3 sequence (looked up): T1 sequence (looked up) with G62C
The description is as above.

Substitutions are numbered along the chain they refer to. Numbers in names are those of the source.

B1: keratin 18 wild type recombinant protein (natural protein, human, UniProt P05783 1-430, looked up)
chain: MSFTTRSTFSTNYRSLGSVQAPSYGARPVSSAASVYAGAGGSGSRISVSRSTSFRGGMGSGGLATGIAGGLAGMGGIQNEKETMQSLNDRLASYLDRVRSLETENRRLESKIREHLEKKGPQVRDWSHYFKIIEDLRAQIFANTVDNARIVLQIDNARLAADDFRVKYETELAMRQSVENDIHGLRKVIDDTNITRLQLETEIEALKEELLFMKKNHEEEVKGLQAQIASSGLTVEVDAPKSQDLAKIMADIRAQYDELARKNREELDKYWSQQIEESTTVVTTQSAEVGAAETTLTELRRTVQSLEIDLDSMRNLKASLENSLREVEARYALQMEQLNGILLHLESELAQTRAEGQRQAQEYEALLNIKVKLEAEIATYRRLLEDGEDFNLGDALDSSNSMQTIQKTTTRRIVDGKVVSETNDTKVLRH
notes: keratin 18 (K18), wild type, recombinant protein; also called K18 WT; K18
The term Kd denotes the constant that tells how readily two partners part at equilibrium. B1: the Kd in experiment [1] was 8.5 nM; in experiment [2], 13.4 nM; in experiment [3], 8.5 nM; in experiment [4] it was 26.2 nM.

B2: keratin 18 S230T recombinant protein (natural protein, human, UniProt P05783 1-430, looked up)
chain: B1 chain with S230T
notes: keratin 18 (K18) with the variation S230T found in an IBD patient and in controls, recombinant protein; Natural variant, earlier designated a polymorphism; also called K18 S230T
B2: the dissociation constant Kd in experiment [1] was 161 nM.
